Test results as given in CN114106160A (ANYUAN MEDICINE SCIENCE AND TECH SHANGHAI LIMITED COMPANY, dated 2022).
Like-named read-outs stand apart in the source and are kept apart here.

Legend:
刺突S-鼠Fc融合蛋白(S-mFc) [1] = molecular target: T1, 刺突S-鼠Fc融合蛋白(S-mFc) (SARS-CoV-2; mouse, UniProt P0DTC2 14-1213); assay: flow cytometry, antibody blocks binding of S-mFc to 293T-ACE2 cells
T1 construct: domain: S蛋白全长区段

[2] = molecular target: T2, SARS-CoV-2 S1蛋白 (ACRO Biosystems) (SARS-CoV-2, UniProt P0DTC2 16-685)
[3] = molecular target: T2, SARS-CoV-2 S1蛋白 (ACRO Biosystems); assay: BLI, biotinylated SARS-CoV-2 S1 on SA sensor, antibody as analyte, 1:1 model
刺突S-鼠Fc融合蛋白(S-mFc) [4] = molecular target: 刺突S-鼠Fc融合蛋白(S-mFc) (SARS-CoV-2; mouse, UniProt P0DTC2 14-1213); assay: flow cytometry, antibody blocks binding of S-mFc to 293T-ACE2 cells
[5] = molecular target: SARS-CoV-2 S1蛋白 (ACRO Biosystems) (SARS-CoV-2, UniProt P0DTC2 16-685); assay: BLI, biotinylated SARS-CoV-2 S1 on SA sensor, antibody as analyte, 1:1 model

B1: 人源化抗体hS1B-48-2 (antibody, V domains shown)
VH: EVQLVQSGAEVKKPGASVKVSCKASGYTFTNYVMHWVRQAPGKGLEWIGYFNPYNDDAEYNEKFKGKATLTSDKSTSTAYMKLSSLRSEDTAVYYCASLRQETDYWGQGTTLTVSS
VL: DIVLTQSPSSLAVSLGERATINCRASESVDNYGFSLMNWFQQKPGKPPKLLIYEASNQGSGVPARFSGSGSGTDFTLKISRLQAEDVAVYFCHQSKEVPWTFGGGTKLEIKR
B1 was tested, and the IC50 (刺突S-鼠Fc融合蛋白(S-mFc) [1]) was 0.00582 µg/mL, the EC50 [2] was 0.0197 µg/mL and the Kd [3] was 0.00113 nM. For the same binder, the koff [3] was 9.81e-07 s⁻¹ and the kon [3] was 867000 M⁻¹ s⁻¹.

B2: 鼠源抗体S1B-48-2 (antibody, V domains shown)
VH: EVQLQQSGPELEKPGASVKMSCKASGYTFTNYVMHWVKQKPGQGLEWIGYFNPYNDDAEYNEKFKGKATLTSDKSSSTAYMVLSSLTSEDSAVYYCACLRQETDYWGQGTTLTVSS
VL: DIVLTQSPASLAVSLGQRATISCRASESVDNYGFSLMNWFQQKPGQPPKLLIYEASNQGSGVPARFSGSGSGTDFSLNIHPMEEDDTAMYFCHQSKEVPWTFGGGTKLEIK
B2 was tested, and the IC50 (刺突S-鼠Fc融合蛋白(S-mFc) [4]) was 0.0108 µg/mL, the Kd [5] was 0.0156 nM and the koff [5] was 4.27e-06 s⁻¹. The kon [5] was 273000 M⁻¹ s⁻¹.

B3: 鼠源抗体S1B-64-2 (antibody, V domains shown)
VH: EVQLQQSGPELEKPGASVKMSCKASGYTFTNYVMHWVKQKPGQGLEWIGYFNPYNDGTKYNEKFKGKATLTSDKSSSTAYMELSSLTSEDSAVYYCACLRQRADYWGQGTTLTVSS
VL: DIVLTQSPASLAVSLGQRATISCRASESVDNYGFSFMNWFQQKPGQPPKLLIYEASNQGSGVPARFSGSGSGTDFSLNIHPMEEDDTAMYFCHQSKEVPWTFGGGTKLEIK
In the case of B3, the Kd [5] is reported as 0.091 nM, the koff [5] is reported as 4.43e-05 s⁻¹ and the kon [5] is reported as 487000 M⁻¹ s⁻¹.
